The supplement of paper PMC11246515
± gives the standard deviation of the averaged measurements.

Assay: total protein half-life in vivo (active degradation + dilution); higher = more stable protein
[1] = E. coli NCM3722 delta-clpP delta-lon delta-hslV, growth: N-lim chemostat, doubling time 6 h
[2] = E. coli NCM3722 delta-clpP, growth: N-lim chemostat, doubling time 6 h
[3] = E. coli NCM3722 delta-hslV, growth: N-lim chemostat, doubling time 6 h
[4] = E. coli NCM3722 delta-lon, growth: N-lim chemostat, doubling time 6 h
[5] = E. coli NCM3722 delta-smpB, growth: N-lim chemostat, doubling time 6 h
[6] = wild type E. coli NCM3722, growth: C-lim chemostat, doubling time 6 h
[7] = wild type E. coli NCM3722, growth: C-lim chemostat, doubling time 12 h
[8] = wild type E. coli NCM3722, growth: N-lim chemostat, doubling time 6 h
[9] = wild type E. coli NCM3722, growth: N-lim chemostat, doubling time 12 h
[10] = wild type E. coli NCM3722, growth: P-lim chemostat, doubling time 6 h
[11] = wild type E. coli NCM3722, growth: P-lim chemostat, doubling time 12 h
[12] = wild type E. coli NCM3722, growth: C-lim chemostat, doubling time 3 h

| Sequence | total protein half-life in vivo [1] [h] | total protein half-life in vivo [2] [h] | total protein half-life in vivo [3] [h] | total protein half-life in vivo [4] [h] | total protein half-life in vivo [5] [h] | total protein half-life in vivo [6] [h] | total protein half-life in vivo [7] [h] | total protein half-life in vivo [8] [h] | total protein half-life in vivo [9] [h] | total protein half-life in vivo [10] [h] | total protein half-life in vivo [11] [h] | total protein half-life in vivo [12] [h] |
| --- | --- | --- | --- | --- | --- | --- | --- | --- | --- | --- | --- | --- |
| MKTNIKVFTSTGELTTLGRELGKGGEGAVYDIEEFVDSVAKIYHTPPPALKQDKLAFMAATADAQLLNYVAWPQATLHGGRGGKVIGFMMPKVSGKEPIHMIYSPAHRRQSYPHCAWDFLLYVARNIASSFATVHEHGHVVGDVNQNSFMVGRDSKVVLIDSDSFQINANGTLHLCEVGVSHFTPPELQTLPSFVGFERTENHDNFGLALLIFHVLFGGRHPYSGVPLISDAGNALETDITHFRYAYASDNQRRGLKPPPRSIPLSMLPSDVEAMFQQAFTESGVATGRPTAKAWVAALDSLRQQLKKCIVSAMHVYPAHLTDCPWCALDNQGVIYFIDLGEEVITTGGNFVLAKVWAMVMASVAPPALQLPLPDHFQPTGRPLPLGLLRREYIILLEIALSALSLLLCGLQAEPRYIILVPVLAAIWIIGSLTSKAYKAEVQQRREAFNRAKMDYDHLVRQIQQVGGLEGFIAKRTMLEKMKDEILGLPEEEKRALAALHDTARERQKQKFLEGFFIDVASIPGVGPARKAALRSFGIETAADVTRRGVKQVKGFGDHLTQAVIDWKASCERRFVFRPNEAITPADRQAVMAKMTAKRHRLESALTVGATELQRFRLHAPARTMPLMEPLRQAAEKLAQAQADLSRC | 4.54 | 4.86 | – | – | – | – | – | – | – | – | – | – |
| MKTRIHVVQGDITKLAVDVIVNAANPSLMGGGGVDGAIHRAAGPALLDACLKVRQQQGDCPTGHAVITLAGDLPAKAVVHTVGPVWRGGEQNEDQLLQDAYLNSLRLVAANSYTSVAFPAISTGVYGYPRAAAAEIAVKTVSEFITRHALPEQVYFVCYDEENAHLYERLLTQQGDE [P0A8D6] | – | 4.32 ± 0.98 | 4.02 ± 0.17 | 4.294 ± 0.033 | 3.89 ± 0.28 | 5.89 ± 0.66 | 9.58 ± 0.72 | 4.63 ± 0.32 | 6.81 ± 0.32 | 5.95 ± 0.57 | 12 ± 0.23 | – |
| MKTSRLPIAIQQAVMRRLREKLAQANLKLGRNYPEPKLSYTQRGTSAGTAWLESYEIRLNPVLLLENSEAFIEEVVPHELAHLLVWKHFGRVAPHGKEWKWMMENVLGVPARRTHQFELQSVRRNTFPYRCKCQEHQLTVRRHNRVVRGEAVYRCVHCGEQLVAK | 4.81 ± 0.12 | – | – | – | – | – | 5.52 | – | – | – | – | – |
| MKVDIDTSDKLYADAWLGFKGTDWKNEINVRDFIQHNYTPYEGDESFLAEATPATTELWEKVMEGIRIENATHAPVDFDTNIATTITAHDAGYINQPLEKIVGLQTDAPLKRALHPFGGINMIKSSFHAYGREMDSEFEYLFTDLRKTHNQGVFDVYSPDMLRCRKSGVLTGLPDGYGRGRIIGDYRRVALYGISYLVRERELQFADLQSRLEKGEDLEATIRLREELAEHRHALLQIQEMAAKYGFDISRPAQNAQEAVQWLYFAYLAAVKSQNGGAMSLGRTASFLDIYIERDFKAGVLNEQQAQELIDHFIMKIRMVRFLRTPEFDSLFSGDPIWATEVIGGMGLDGRTLVTKNSFRYLHTLHTMGPAPEPNLTILWSEELPIAFKKYAAQVSIVTSSLQYENDDLMRTDFNSDDYAIACCVSPMVIGKQMQFFGARANLAKTLLYAINGGVDEKLKIQVGPKTAPLMDDVLDYDKVMDSLDHFMDWLAVQYISALNIIHYMHDKYSYEASLMALHDRDVYRTMACGIAGLSVATDSLSAIKYARVKPIRDENGLAVDFEIDGEYPQYGNNDERVDSIACDLVERFMKKIKALPTYRNAVPTQSILTITSNVVYGQKTGNTPDGRRAGTPFAPGANPMHGRDRKGAVASLTSVAKLPFTYAKDGISYTFSIVPAALGKEDPVRKTNLVGLLDGYFHHEADVEGGQHLNVNVMNREMLLDAIEHPEKYPNLTIRVSGYAVRFNALTREQQQDVISRTFTQAL | 4.15 | – | – | – | 1.87 ± 0.4 | 2.56 ± 0.43 | 3.63 ± 1.1 | 1.88 | 3.13 | 3.24 | 6.82 ± 0.17 | 2.12 ± 0.2 |
| MKVGFIGLGIMGKPMSKNLLKAGYSLVVADRNPEAIADVIAAGAETASTAKAIAEQCDVIITMLPNSPHVKEVALGENGIIEGAKPGTVLIDMSSIAPLASREISEALKAKGIDMLDAPVSGGEPKAIDGTLSVMVGGDKAIFDKYYDLMKAMAGSVVHTGEIGAGNVTKLANQVIVALNIAAMSEALTLATKAGVNPDLVYQAIRGGLAGSTVLDAKAPMVMDRNFKPGFRIDLHIKDLANALDTSHGVGAQLPLTAAVMEMMQALRADGLGTADHSALACYYEKLAKVEVTR [P0ABQ2] | 3.86 ± 0.51 | 3.02 ± 0.079 | 3.5 ± 0.65 | 3.57 ± 0.23 | 2.9 ± 0.15 | 5.47 ± 0.28 | 9.56 ± 1 | 3.13 ± 0.46 | 4.13 ± 0.28 | 5.31 ± 0.075 | 10.3 ± 0.15 | 2.9 ± 0.065 |
| MKVKVLSLLVPALLVAGAANAAEVYNKDGNKLDLYGKVDGLHYFSDNKDVDGDQTYMRLGFKGETQVTDQLTGYGQWEYQIQGNSAENENNSWTRVAFAGLKFQDVGSFDYGRNYGVVYDVTSWTDVLPEFGGDTYGSDNFMQQRGNGFATYRNTDFFGLVDGLNFAVQYQGKNGNPSGEGFTSGVTNNGRDALRQNGDGVGGSITYDYEGFGIGGAISSSKRTDAQNTAAYIGNGDRAETYTGGLKYDANNIYLAAQYTQTYNATRVGSLGWANKAQNFEAVAQYQFDFGLRPSLAYLQSKGKNLGRGYDDEDILKYVDVGATYYFNKNMSTYVDYKINLLDDNQFTRDAGINTDNIVALGLVYQF | 7.5928 ± 0.0042 | 6.32 ± 1.1 | 6.59 ± 0.66 | 7.2 ± 0.57 | 6.24 ± 0.51 | 6.64 ± 0.99 | 11.6 ± 2 | 5.94 ± 0.54 | 12.4 ± 1.4 | 6.7 ± 0.53 | 13.9 ± 2.6 | 3.37 ± 0.1 |
| MKVLVTGATSGLGRNAVEFLCQKGISVRATGRNEAMGKLLEKMGAEFVPADLTELVSSQAKVMLAGIDTLWHCSSFTSPWGTQQAFDLANVRATRRLGEWAVAWGVRNFIHISSPSLYFDYHHHRDIKEDFRPHRFANEFARSKAASEEVINMLSQANPQTRFTILRPQSLFGPHDKVFIPRLAHMMHHYGSILLPHGGSALVDMTYYENAVHAMWLASQEACDKLPSGRVYNITNGEHRTLRSIVQKLIDELNIDCRIRSVPYPMLDMIARSMERLGRKSAKEPPLTHYGVSKLNFDFTLDITRAQEELGYQPVITLDEGIEKTAAWLRDHGKLPR | 6.23 ± 0.075 | – | 6.37 ± 0.24 | 5.88 ± 0.54 | 5.48 ± 0.29 | – | 9.95 ± 0.97 | 6.14 ± 0.16 | 12.6 ± 0.48 | 5.6 ± 0.61 | 9.9 ± 0.57 | 2.62 ± 0.47 |
| MKYDTSELCDIYQEDVNVVEPLFSNFGGRASFGGQIITVKCFEDNGLLYDLLEQNGRGRVLVVDGGGSVRRALVDAELARLAVQNEWEGLVIYGAVRQVDDLEELDIGIQAMAAIPVGAAGEGIGESDVRVNFGGVTFFSGDHLYADNTGIILSEDPLDIE [P0A8R0] | 5.37 ± 0.18 | 5.11 ± 0.26 | 5.16 ± 0.12 | 4.57 ± 0.28 | 4.26 ± 0.1 | 6.31 ± 1.1 | 13.4 ± 0.22 | 5.06 ± 0.22 | 8.11 ± 0.27 | 6.02 ± 0.41 | 12.7 ± 1.7 | 3.25 ± 0.3 |
